Reference: PMC7367873, “Dissecting the sequence determinants for dephosphorylation by the catalytic subunits of phosphatases PP1 and PP2A” (Nature Communications, 2020)

Target: T1, PP1c (Homo sapiens, UniProt P62136)
T1 construct: His tag with TEV site (N, cleaved yes); intein (pTXB1) (C, cleaved yes); made in house; host or cells: E. coli BL21Star(DE3)pRARE
Test: Phosphopeptide library dephosphorylation followed by mass spectrometry (PLDMS), PP1c
Assay type: biochemical
Settings: all libraries, 25 nM PP1c, 100 µM library, 2 min, 25 °C, pH 7.5; library distribution 60% Ser to 40% Thr
Source text: In order to determine phosphatase specificity on the phosphopeptide level, we developed an in vitro phosphopeptide library dephosphorylation followed by mass spectrometry approach (PLDMS, Fig. 1a; see the methods for details). In this approach, phosphopeptide libraries would be treated with PP1, PP2A, or left untreated, purified, and analyzed by LC-MS/MS measurements. In the first step, design, synthesis, and validation of phosphopeptide libraries were required. The phosphopeptide libraries were designed to yield an even distribution of amino acids in the different randomized positions and to give high coupling efficiency during synthesis, thus reducing the number of by-products. […]
The individual libraries were incubated with recombinant PP1c or PP2Ac (Supplementary Fig. 1a) and the reaction was stopped by shifting the pH from 7.5 to 3 when 30–50% of the library was dephosphorylated, depending on phosphatase activity (see the methods for details, Supplementary Fig. 1b). Peptides were then separated from the recombinant protein by size-exclusion chromatography (SEC) (Supplementary Fig. 1c) and analyzed by LC-MS/MS (Fig. 1a). […]
For LC-MS analysis, the treated/ctrl peptide libraries were purified by SEC. […] A 0.1 M ammonium acetate buffer (pH 5) was used throughout the column equilibration and purification and the elution profile was recorded at 280 nm. […]

T1 sequence (P62136 whole entry): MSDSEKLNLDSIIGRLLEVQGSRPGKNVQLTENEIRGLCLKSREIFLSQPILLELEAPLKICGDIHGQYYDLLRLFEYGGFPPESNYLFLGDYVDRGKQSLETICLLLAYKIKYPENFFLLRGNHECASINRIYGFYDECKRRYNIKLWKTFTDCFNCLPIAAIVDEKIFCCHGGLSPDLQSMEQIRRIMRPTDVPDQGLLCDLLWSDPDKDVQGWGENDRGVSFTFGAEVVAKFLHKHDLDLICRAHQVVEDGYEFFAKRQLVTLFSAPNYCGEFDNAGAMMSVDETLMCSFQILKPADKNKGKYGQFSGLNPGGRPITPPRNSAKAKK

Substance: PP1c: recombinant catalytic subunit of PP1
- pThr share of all sites dephosphorylated by PP1c: 73%
